Measurements: patent US20240026407A1, “MODIFICATION OF SAPONINS” (GLAXOSMITHKLINE BIOLOGICALS SA, priority 2020, published 2024)

Assays:
Assay type in all cases: biochemical, Quillaja saponaria
[1] = Experiment 5-1: screening of additional glucosidases for deglycosylation with purified QS-18 (0.04 mg/ml) at pH 7.5 and 30 deg C; conditions: pH 7.5, 30 degrees C, 18 hours, LCMS/MS
Method: The 94 additional genes, together with positive control (DNA encoding SEQ ID No. 262) and negative control, were transformed, expressed, lysed and reacted in the same manner as described above for Experiment 4-1, except the reaction was incubated at 30 degrees C. for 18 hours.
Samples were analysed by LCMS/MS according to the procedure in Experiment 4-1.

[2] = Experiment 5-3: screening of additional glucosidases for deglycosylation with QS-18 in treated bark extract (80%) at pH 6 and 35 deg C; conditions: TBE 80% (QS-21 approx. 4 g/L), pH 6, 35 deg C; UV HPLC
Method: Experiment 5-1 was repeated, replacing CBE with Treated Bark Extract (TBE) at pH 6. TBE was prepared from CBE by PVPP treatment and concentration, to provide TBE with a QS-21 concentration of approximately 4 g/L. TBE was adjusted to pH 6 by dropwise addition of 2M NaOH with stirring.

[3] = Experiment 5-2: screening of additional glucosidases for deglycosylation with QS-18 in crude bark extract (80%) at pH 6 and 35 deg C; conditions: CBE 80%, pH 6, 35 deg C, 18 hours; UV HPLC
How it was run: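 Deglycosylation of QS-18 was monitored by UV HPLC after MeCN/AcOH quench with hexanophenone. The reaction ran 18 hours at 35 deg C, shaking, combining clarified pH 6 lysate with crude bark extract neutralised to pH 6 by NaOH.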

B1: 868 (protein, listed as Dictyoglomus thermophilum)
chain: MKLEYKIPYRIERGEQTNFSPLFIRIISQGGKQMEKDIKKLISQMTLEEKASLCSGLDFWHTKPIERLGIPSIRMSDGPHGLRKEETMFSKTVPATCFPTAVTIAASWDKLLAEKMGKAIGEECQAENVQILLGPGINMKRSPLCGRNFEYYSEDPILAGELAAHFIKGVQSQGVGTSLKHFAANNQEHRRLTVDAIIDERTLREIYLTAFEKAVKEAKPWTVMCSYNKVNGTYASENEFLLTKVLREEWGFEGFVVSDWGAVNDRVKGLAAGLDLQMPYDGGNGDKKIIEAVKSGKLPEEVLDRAVERILKIVFKAIENKKENATYDKEAHHKLAREIARECFVLLKNENNILPLKKEGKIALIGAFAKKPQIQGGGSAHVNPTRVDDAVEEIKKLVGDKVEILYADGYHIEKDDVDEKLIEEAKEIAKKADVVVIFAGLPERYESEGFDRPHMKMPESHNRLIEEVAKVNSNLVVVLSNGAPIEMPWVDKPKAILETYRGGQAWGGAVADVLFGVVNPSGKLPESFPKKLSDNPSYLFFPGEDDRSEYREGIFIGYRYYDKKEMEVLFPFGYGLSYTTFEYSDLKLDKKEMKDDEVLKVSVKVKNTGKVKGKEIVQLYVRDVKSNYIRPEKELKGFEKVELEPGEEKEVVFYLDKRAFAFYNIDIKDWYVEDGEFEILIGKSSRDIVLKDKVFVKSTTKIKRHYHINSTIGDIMSDPEASAKFKHILEQFASAFPAFSSEEAIMNFAEMMKYMPLRNLIHFGQGKFTEEMLENLLKEINS
- Experiment 5-1 % conv [1]: 89.9%
- Experiment 5-3 % conv [2]: <0.5%
- Experiment 5-2 % conv [3]: <0.5%

B2: 826 (protein)
chain: MSDYPSVNDLTLEEKAALTSGTNPWSLGNVAAKGLPNYTITDGPHGLRKAQNTESMDVEENVPATCFPPAAGMACSWNPELVERVGEAMGEECIQEQVAVILGPGVNIKRNPLGGRCFEYWSEDPYLAGHTAVGIVKGVQSKGVGTSLKHFAANNQETDRLRISATISPRAMREIYLPAFEYIVKTAQPWTVMCSYNKINGVFSSQNRWLLTDVLRGEWGFKGIVMSDWGAVSDRVAALNAGLNLEMPPSNTDDQIVAAAKDGRIPAAQLDEMAQGMIDLVAKARPAMSRDGYRYDVDAHNEVARQAAVESMVLLKNEDATLPVAKGAKIAVIGEFARTPRYQGAGSSLINPTKLTSFLDAIEERGVAADFAPGFTLDDAAQDPALTEQAVTAAQQADVVLLFLGLPAAYESEGFDRTTLDIPAKQVEVLDAVAAANPNVAVVLSNGSVVSMPWRGRAKAILETWLLGQAGGAALADVIFGDETPSGKLAQTIIDDVNDDPSAMNWPGEEGHVDYGEGVFVGYRYHDTFRKQVTYPFGYGLSYATFDVHDATVAKTGPRTAEVTVTVTNTSDVAGAETVQVYVAPPKAKVARPVHELKGFAKVALEPGESKNVTIALDDRAFAYWSERFDDWHVEGGTYTVEVGVSSRDIVSRIDVEIDDDGKIMNLDEWSTFGEWLDDPIGAPILQHVLDDMAKEAGHPVIPDSALMVMFLRSMPLRSLSVILGEAGEQVAANLTEAYRKATA
modifications: Bifidobacterium saeculare
- Experiment 5-1 % conv [1]: 86.9%
- Experiment 5-3 % conv [2]: 1.4%
- Experiment 5-2 % conv [3]: 0.8%

B3: 850 (protein, listed as Bifidobacterium scardovii)
chain: MSESTYPSVKDLTLEEKASLTSGGDVWHLQGVESKGIPGYMITDGPHGLRKSLASSAGETDLDASVPATCFPPAAGLSSSWNPELIRKVGEAMGEECIQEKVAVILGPGVNIKRNPLGGRCFEYWSEDPYLAGHEAIGIVEGVQSKGVGTSLKHFAANNQETDRLRISANIGPRALREIYLPAFEHIVKTAQPWTVMCSYNRINGVYSAQNRWLLTDVLRGEWGFEGIVMSDWGADHDRVASLNAGLNLEMPPSYTDDEIVHAARDGRIAPAQLDAMAQGMIDLVNRTRAAMSVDDYRFDVDAHDEVAHQAAVESIVMLKNDGAILPLDADAASGQKIAVIGEFARTPRYQGGGSSHITPTRMTSFLDALDERGIAAEFAPGFTLDLEPADPALEAQAVDAAKRADTVLMFLGLPEAAESEGFDRETLDIPAKQIALLDAVAAANDQVVVVLSNGSAVSVAPWAGRAKGILESWLLGQAGGPALADVIFGRTSPSGKLAQTIPMDINDDPSMVNWPGEEGHVDYGEGVFVGYRYYDTYGKAVGYPFGYGLSYATFEISKAAVARTGANAAVVTATVTNTSGVDGAETVQVYVAPGKADVARPRHELKGFVKVFLKAGESADVAIDLDERAFAYWSERYDDWHIESGEYAVEIGTSSRDIAATVTVALEGDGKTQPLTAWSTYGEWSSDPIGAKVMAAVAAAGEAGELPKLPDNAMMNMFLMAMPINSLPTLMSEGGKSITRFMLDEYARLTK
- Experiment 5-1 % conv [1]: 95.3%
- Experiment 5-3 % conv [2]: <0.5%
- Experiment 5-2 % conv [3]: <0.5%

B4: 879 (protein, listed as Morchella conica)
chain: MTVSPLPKDLQKKVNDVLDSLTLLEQVSLLAGKDFWRTVEIPGKVPSIKVTDGPSGARGQFFSGGTKAAFFPSGVSLAATFDPELITHIGNALGQETKTKAAQVLLAPTACNHRSPLGGRNFESFSEDPYLSGKLAASYISGVQAEGVAVTMKHFVANEQETKRFSVNEIIDERALREIYLKPFEIAVREAGPWGIMSSYNKVNAHHADLHPFSMKQVLRAEWGWDGLVMSDWGGTNSTAESLIAGLDLEMPGPTRRRGELLLKAVQDTNSSPELLAAIKTGARHVLELIARTGRWGKFQEAEEQAVDKLEHRELIRKTGAHGIVLLKNEGATLPIKREQIKSVAWIGPNANETIAGGGGSANLNPHYLTNPLESFTAAVEENDIKVAYEIGCQTEKWVRVFPVEEGRARTAPSATEGAPGLKVDFFGGRECSGECVASNVMTTSNIFLMDGKPPVLGDQDYSVRITTYIRPEATGEHVVGVGSIGPTKIYVDDKLLIDHTHWIELGELFFTSGSEEVTQKIHLEAGKWYKLVAETTSKSPEQKLPDMGNDNLDFASAIGIRLGIDAVRDVQEYIDRAATLAKKSDVAVVVVGMNNEWESEGYDRHTMALPGKQNELIEAVVKANPNTIVVNQSGCPVTMPWLDRVPAVLQAWYQGQEAGNALVDVLLGKVNPSGRLPITFPKRLEDNPSFGNFGDGGEKNQIAYTEGIYVGYRHYNSRDIPVLFPFGFGLSYTSFELGAPTVDQAAFEIGKKITVQVPVKNTGAIKGIETVQVYLAPKKSAVDRPKRELKGFAKIELEAGESGVARIELDHYAPGLFCEERKCWRALEGAYVVEVGRNVQEIDGSVEVAVEREYEWVF
- Experiment 5-1 % conv [1]: 90.1%
- Experiment 5-3 % conv [2]: <0.5%
- Experiment 5-2 % conv [3]: <0.5%
